Experiment: yeast display, Sf9 membrane polyspecificity reagent, FACS + sequencing; frameworks hold sequencing errors
Outline: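 In a synthetic yeast display library (Saccharomyces cerevisiae BJ5465), nanobody expression was induced with galactose for 36–48 hours. FACS gates were set low and high (top ~1%) using anti-HA fluorescence for expression and streptavidin fluorescence for binding of the Sf9 membrane reagent. Each polyreactivity label is drawn from the gate of origin.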

For “QVQLVESGGGLVQAGGSLRLSCAASGFIFRYYAMGWYRQAPGKERELVAAISGSGGSTYYADSVKGRFTISRDNAKNTVYLQMNSLKPEDTAVYYCAAYYYGYEYWGQGTQVTVSS”, the “polyreactivity (PSR sort gate)” value was “high polyreactivity”.
For “QVQLVESGGGLVQAGGSLRLSCAASGFIFRYYAMGWYRQAPGKERELVAAISWSGSSTYYADSVKGRFTISRDNAKNTVYLQMNSLKPEDTAVYYCNAVTRNARDYWGQGTLVTVSS”, the “polyreactivity (PSR sort gate)” value was “high polyreactivity”.
For “QVQLVESGGGLVQAGGSLRLSCAASGFIFRYYAMGWYRQAPGKERELVAAITSDGSTYYADSVKGRFTISRDNAKNTVYLQMNSLKPEDTAVYYCARSVYRFYLKTRASDYWGQGTQETVSS”, the “polyreactivity (PSR sort gate)” value was “high polyreactivity”.
For “QVQLVESGGGLVQAGGSLRLSCAASGFIFRYYAMGWYRQAPGKERELVAAITSRGSSTYYADSVKGRFTISRDNAKNTVYLQMNSLKPEDTAVYYCAARLRGDYVRYDYWGQGTQVTVSS”, the “polyreactivity (PSR sort gate)” value was “high polyreactivity”.
With “QVQLVESGGGLVQAGGSLRLSCAASGFIFRYYAMGWYRQAPGKERELVARIRSSGGSTYYADSVKGRFTISRDNAKKTVYLKMNSLKPEDTAVYYCDTVSYITYYGGYGYWGQGTQVTVSS” the “polyreactivity (PSR sort gate)” value was “high polyreactivity”.
For “QVQLVESGGGLVQAGGSLRLSCAASGFIFRYYAMGWYRQAPGKERELVATINSSGGSTYYADSVKGRFTISRDNAKNTVYLQMNSLKPEDTAVYYCYAGYVSYRGQSRYEYWGQGTQVTVSS”, the “polyreactivity (PSR sort gate)” value was “high polyreactivity”.
For “QVQLVESGGGLVQAGGSLRLSCAASGFIFRYYTMGWYRQAPGKERELVAAISYSGGRTYYADSVKGRFTISRDNAKNTVYLQMNSVKPEDTAVYYCAARQGYVDDDYWGQGTQVTVSS”, the “polyreactivity (PSR sort gate)” value was “high polyreactivity”.
With “QVQLVESGGGLVQAGGSLRLSCAASGFIFRYYTMGWYRQAPGKERELVAAITSGGSTTYADSVKGRFTISRDNAKNTVYFQMNSLKPEDTAVYYCNTAYWYSLYDYWGQGTQVTVSS” the “polyreactivity (PSR sort gate)” value was “high polyreactivity”.
For “QVQLVESGGGLVQAGGSLRLSCAASGFIFRYYTMGWYRQAPRKERELVASITSGGSTYYADSVKGRFTSSRDNAKNTVYLQMNCLKPEDTAVYSCAKHRDVLWRYKYWGQGTQVTVSS”, the “polyreactivity (PSR sort gate)” value was “high polyreactivity”.
In the case of “QVQLVESGGGLVQAGGSLRLSCAASGFIFRYYVMGWYRQAPGKERELVAAITGSGGSTYYADSVKGRFTISRDNAKNTVYLQMNSLKPEDTAVYYCAARVWPIVQNYYWGQGTQVTVSS”, the “polyreactivity (PSR sort gate)” value is reported as “high polyreactivity”.
For “QVQLVESGGGLVQAGGSLRLSCAASGFIFSCYAMGWDRQAPGKERELVAAISWSGGSTYYADSVKGRFTISRDNAKNTVYLQMNSLKPEDTAVYYCAADRGYRRLFLNNVDYWGQGTQVTVSS”, the “polyreactivity (PSR sort gate)” value was “high polyreactivity”.
For “QVQLVESGGGLVQAGGSLRLSCAASGFIFSENAMGWYRQAPGKERELVAAISDGGGSTYYADSVKGRFTISRDNAKNTVYLQMNSLKPEDTAVYYCNAVYHPKGPSGYGYWGQGTQVTVSS”, the “polyreactivity (PSR sort gate)” value was “low polyreactivity”.
For “QVQLVESGGGLVQAGGSLRLSCAASGFIFSKNAMGWSRQAPGKERELVAAISYSGGSTYYADSVKGRFTISRDNAKNTVYLQMNSLKPEDTAVNYCAAGGIYAPSSEYDSWGQGTQVTVSS”, the “polyreactivity (PSR sort gate)” value was “low polyreactivity”.
For “QVQLVESGGGLVQAGGSLRLSCAASGFIFSKNVMGWYRQAPGKERELVARITRSGGTTYYADSVKVRFTISRDNAKNTVYLQMHRLKQEDTAVYYCAARRYGYTSITWYDYWGQGTQVTVSS”, the “polyreactivity (PSR sort gate)” value was “high polyreactivity”.
For “QVQLVESGGGLVQAGGSLRLSCAASGFIFSKYAMGWYRQAPGKERELVAAISWNGGSTYYADSVKGRFTISRDNAKNTVYLQMNSLKPEDTAVYYCNTGYGRIRRPGALDYWGQGTQVTVSS”, the “polyreactivity (PSR sort gate)” value was “high polyreactivity”.
For “QVQLVESGGGLVQAGGSLRLSCAASGFIFSLYAMGWYRQAPGKERELVAAITRGGSTKYADSVKGRFTISRDNAKNTVYLQMNSLKPEDTAVYYCAARYNGKLNWGQGTQVTVSS”, the “polyreactivity (PSR sort gate)” value was “high polyreactivity”.
In the case of “QVQLVESGGGLVQAGGSLRLSCAASGFIFSLYAMGWYRQAPGTERELVAAISKRGGSTNYADSVKGRFTISRDNAKNTVYLQMNSLKPEDTAVYYCAKARPGFLYDHWGQGTQVTVSS”, the “polyreactivity (PSR sort gate)” value is reported as “high polyreactivity”.
In the case of “QVQLVESGGGLVQAGGSLRLSCAASGFIFSNNAMGWYIEAPGKERELVAVINGGGSTYYADSVKGRFTISRDNAKNTVYLQMNSLKPEDTAVYYCARKSWPKEGRVDPGYDYWGQGTQVTVSS”, the “polyreactivity (PSR sort gate)” value is reported as “low polyreactivity”.
With “QVQLVESGGGLVQAGGSLRLSCAASGFIFSNNDRGLYRQAPGKDREVVAVINGGGSTYYADSVKASFTISRDNAKNTVFLQMNSLKPEDTAVYYCARKSWPKERRVDPGYDYWGQGTKVTVSS” the “polyreactivity (PSR sort gate)” value was “low polyreactivity”.
For “QVQLVESGGGLVQAGGSLRLSCAASGFIFSPNAMGWYRQAPGKEREFVAAIRYSGTSTSYADSVKGRFTISRDNAKNTVYLQMNSLKPEDTAVYYCAAGRSNSYSPRRRVTYGYNYWGQGTQVTVSS”, the “polyreactivity (PSR sort gate)” value was “high polyreactivity”.
In the case of “QVQLVESGGGLVQAGGSLRLSCAASGFIFSRYAMGWYRQAPGKERELVAAISWSGASTYYADSVKGRFTISRDNAKNTVYLQMNSLKPEYTAVYYCNAVVTYHYSVSSVGSRYDYWGQGTQVTVSS”, the “polyreactivity (PSR sort gate)” value is reported as “high polyreactivity”.
For “QVQLVESGGGLVQAGGSLRLSCAASGFIFSRYDMGWYRQAPGKERELVAAIDWSGDSTYYADSVKGRFTISRDNAKHTVYLQMNSLQPEDTAVYYCAAYYYWGQGTQVTVSS”, the “polyreactivity (PSR sort gate)” value was “low polyreactivity”.
For “QVQLVESGGGLVQAGGSLRLSCAASGFIFSRYTMGWYRQAPGKERELVAAITARGSSTYYADSVKGRFTISRDIAKNTVYLQMISLKPEDTAVYYCNAGQYVFYRPYDYWGQGTQVTVSS”, the “polyreactivity (PSR sort gate)” value was “high polyreactivity”.
For “QVQLVESGGGLVQAGGSLRLSCAASGFIFSSYAMGWYRQAPGKEREFVAAIDWNSTSTYYADSVKGRFTISRDNAKNTVYLQMNSLKPEDTAVYYCAADWVGYFVYPYDYWGQGTQVTVSS”, the “polyreactivity (PSR sort gate)” value was “high polyreactivity”.
With “QVQLVESGGGLVQAGGSLRLSCAASGFIFSSYAMGWYRQAPGKERELVAAISKSGDRTSYADSVKGRFTISRDNAKNTVYLQMNSLKPEDTAVYYCAKDRLYRTKKYRDMYYWGQGTQVTVSS” the “polyreactivity (PSR sort gate)” value was “high polyreactivity”.
With “QVQLVESGGGLVQAGGSLRLSCAASGFIFSVNAMGWYRQAPGKERELVAAISKRGGRTYYADSVKGRFTISRDNAKNTVYLQMNSLKPEDTAVYYCAADQPTLAYPGGYSAGMDYWGQGTQVTVSS” the “polyreactivity (PSR sort gate)” value was “high polyreactivity”.
With “QVQLVESGGGLVQAGGSLRLSCAASGFIFSWNAMGWYRQAPGKERELVAGISWSGGSTYYADSVKGRFTISRDNAKNTVYLQMNSLKPEDTAVYYCAKEPSVGTGGVYRYGRGDYWGQGTQVTVSS” the “polyreactivity (PSR sort gate)” value was “low polyreactivity”.
With “QVQLVESGGGLVQAGGSLRLSCAASGFIFSWYAMGWSRQAPGKERELVAAIDQSGDSTYYADSVKGRFTISRDNAKNTVYLQMNSLKPEDTAVYYCAAQSYDYWYDYDYWGQGTQVTVSS” the “polyreactivity (PSR sort gate)” value was “high polyreactivity”.
For “QVQLVESGGGLVQAGGSLRLSCAASGFIFSWYAMGWSRQAPGKERELVAAISHDGGSTYYADSVKGRFTISRDNAKNTVYLQMNSLKPEDTAVYYCAAAFRAAGRTVRYYWGQGTQVTVSS”, the “polyreactivity (PSR sort gate)” value was “high polyreactivity”.
With “QVQLVESGGGLVQAGGSLRLSCAASGFIFSWYAMGWYRQAPGKERELVAAITSGGSTYYADSVKGRFTISRDNAKNTFYLQMNSLKPEDTAVYYCGTVVTYRYAFPYGYWGQGTQVTVSS” the “polyreactivity (PSR sort gate)” value was “high polyreactivity”.
For “QVQLVESGGGLVQAGGSLRLSCAASGFIFSYAMGWYRQAPGKERELVAAISKSGGRTYYADSVKGRFTISRDNAKNTVYLQMNSLIPEDTAVYYCAVRDLHLSNARYNYWGQGSQVTVSS”, the “polyreactivity (PSR sort gate)” value was “high polyreactivity”.
In the case of “QVQLVESGGGLVQAGGSLRLSCAASGFIFSYNAMRWYRQAPGKERELTYADSVKGRFTISRDNAKNTVYLQMNSLKPEDTAVYFCAAGEYGRQYDGDYWGQATQVTVSS”, the “polyreactivity (PSR sort gate)” value is reported as “low polyreactivity”.

From the nanobody polyreactivity screen of Harvey et al. (2022)
